The results in this text go back to publication PMC10397247.

One assay has as its target T1, O11-bP.
T1 chain: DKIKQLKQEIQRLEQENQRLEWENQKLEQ
Nature of the assay: two-hybrid library CCNG1.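 Note: natural log of median RNA to DNA barcode read ratio; higher means stronger binding.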

For another assay, the target named is T2, O12-bP.
T2 chain: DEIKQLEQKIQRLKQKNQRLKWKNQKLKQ
Nature of the assay: two-hybrid library CCNG1.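 Note: natural log of median RNA to DNA barcode read ratio; higher means stronger binding.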

The next assay has as its target T3, O13-bP.
T3 chain: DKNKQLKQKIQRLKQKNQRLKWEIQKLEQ
Briefly: two-hybrid library CCNG1.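 Note: natural log of median RNA to DNA barcode read ratio; higher means stronger binding.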

The next assay has as its target T4, O14-bP.
T4 chain: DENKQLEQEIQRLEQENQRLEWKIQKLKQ
Briefly: two-hybrid library CCNG1.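 Note: natural log of median RNA to DNA barcode read ratio; higher means stronger binding.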

The target in the next assay is T5, O15-bP.
T5 chain: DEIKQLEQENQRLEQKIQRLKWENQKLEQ
Briefly: two-hybrid library CCNG1.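 Note: natural log of median RNA to DNA barcode read ratio; higher means stronger binding.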

For a further assay, the target named is T6, O16-bP.
T6 chain: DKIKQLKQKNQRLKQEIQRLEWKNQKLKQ
Briefly: two-hybrid library CCNG1.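 Note: natural log of median RNA to DNA barcode read ratio; higher means stronger binding.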

Another assay has as its target T7, O2-bP.
T7 chain: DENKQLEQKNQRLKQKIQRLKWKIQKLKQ
Briefly: two-hybrid library CCNG1.

For a further assay, the target named is T8, O3-bP.
T8 chain: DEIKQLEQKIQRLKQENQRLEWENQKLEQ
Nature of the assay: two-hybrid library CCNG1.

The target in the next assay is T9, O4-bP.
T9 chain: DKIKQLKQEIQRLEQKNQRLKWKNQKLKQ
Nature of the assay: two-hybrid library CCNG1.

Another assay has as its target T10, O5-bP.
T10 chain: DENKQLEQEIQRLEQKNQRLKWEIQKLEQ
Briefly: two-hybrid library CCNG1.

Another assay has as its target T11, O6-bP.
T11 chain: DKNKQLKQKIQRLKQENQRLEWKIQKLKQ
Briefly: two-hybrid library CCNG1.

In a further assay the target is T12, O7-bP.
T12 chain: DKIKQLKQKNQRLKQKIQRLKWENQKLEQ
Nature of the assay: two-hybrid library CCNG1.

Another assay has as its target T13, O8-bP.
T13 chain: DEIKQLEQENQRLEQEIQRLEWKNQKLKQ
Briefly: two-hybrid library CCNG1.

Another assay addresses T14, O9-bP.
T14 chain: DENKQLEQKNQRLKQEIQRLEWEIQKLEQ
Briefly: two-hybrid library CCNG1.

A further assay has as its target T15, P12.
T15 chain: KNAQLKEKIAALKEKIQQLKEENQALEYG
Briefly: two-hybrid library CC1.

In a further assay the target is T16, P3.
T16 chain: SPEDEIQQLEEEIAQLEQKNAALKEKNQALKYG
Nature of the assay: two-hybrid library CC1. The conditions noted are these: mean of both orientations.

For assay [1], the target named is T17, P3mS.
T17 chain: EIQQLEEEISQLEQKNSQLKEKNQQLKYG
Briefly: two-hybrid library CC1. The conditions noted are these: mean of both orientations.

The next assay deals with T18, P4.
T18 chain: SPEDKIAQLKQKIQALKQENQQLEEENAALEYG
Nature of the assay: two-hybrid library CC1. The conditions noted are these: mean of both orientations.

Assay [2] has as its target T19, P4mS.
T19 chain: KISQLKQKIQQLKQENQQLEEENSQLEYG
Nature of the assay: two-hybrid library CC1. The conditions noted are these: mean of both orientations.

In another assay the target is T20, P5SC1.
T20 chain: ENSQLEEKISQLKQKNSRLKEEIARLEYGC
Briefly: two-hybrid library CC1. The conditions noted are these: mean of both orientations.

For a further assay, the target named is T21, P5SC2.
T21 chain: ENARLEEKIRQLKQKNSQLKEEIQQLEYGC
Nature of the assay: two-hybrid library CC1. To be noted: mean of both orientations.

The next assay deals with T22, P5.
T22 chain: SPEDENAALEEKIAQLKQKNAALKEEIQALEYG
Nature of the assay: two-hybrid library CC1. The conditions noted are these: mean of both orientations.

Assay [3] addresses T23, P5mS.
T23 chain: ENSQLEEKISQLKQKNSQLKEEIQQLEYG
Nature of the assay: two-hybrid library CC1. To be noted: mean of both orientations.

For the next assay, the target named is T24, P6SC1.
T24 chain: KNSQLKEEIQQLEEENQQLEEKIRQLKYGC
Briefly: two-hybrid library CC1. To be noted: mean of both orientations.

For the next assay, the target named is T25, P6SC2.
T25 chain: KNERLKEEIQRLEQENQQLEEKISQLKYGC
Briefly: two-hybrid library CC1. The conditions noted are these: mean of both orientations.

For the next assay, the target named is T26, P6.
T26 chain: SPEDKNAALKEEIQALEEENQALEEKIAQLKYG
Briefly: two-hybrid library CC1. To be noted: mean of both orientations.

The target of assay [4] is T27, P6mS.
T27 chain: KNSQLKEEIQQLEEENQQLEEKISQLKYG
Briefly: two-hybrid library CC1. The conditions noted are these: mean of both orientations.

In another assay the target is T28, P7.
T28 chain: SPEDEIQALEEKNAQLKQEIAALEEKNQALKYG
Briefly: two-hybrid library CC1. The conditions noted are these: mean of both orientations.

The target of assay [5] is T29, P7mS.
T29 chain: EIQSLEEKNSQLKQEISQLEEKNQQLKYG
Briefly: two-hybrid library CC1. The conditions noted are these: mean of both orientations.

The target in the next assay is T30, P8.
T30 chain: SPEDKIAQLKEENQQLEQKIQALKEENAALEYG
Briefly: two-hybrid library CC1. To be noted: mean of both orientations.

Assay [6] concerns the target T31, P8mS.
T31 chain: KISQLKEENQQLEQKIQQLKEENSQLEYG
Nature of the assay: two-hybrid library CC1. The conditions noted are these: mean of both orientations.

A further assay concerns the target T32, P9.
T32 chain: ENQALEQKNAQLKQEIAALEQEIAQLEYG
Nature of the assay: two-hybrid library CC1. The conditions noted are these: mean of both orientations.

The next assay deals with T33, P12mS.
T33 chain: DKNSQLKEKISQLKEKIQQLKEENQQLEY
Nature of the assay: two-hybrid library CCNG1.

Assay [7] deals with T34, P3mS.
T34 chain: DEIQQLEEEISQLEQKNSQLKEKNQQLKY
Nature of the assay: two-hybrid library CCNG1.

Assay [8] concerns the target T35, P4mS.
T35 chain: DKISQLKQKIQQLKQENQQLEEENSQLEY
Nature of the assay: two-hybrid library CCNG1.

The target of assay [9] is T36, P5mS.
T36 chain: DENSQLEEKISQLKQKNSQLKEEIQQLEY
Briefly: two-hybrid library CCNG1.

In assay [10] the target is T37, P6mS.
T37 chain: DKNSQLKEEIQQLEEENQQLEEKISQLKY
Briefly: two-hybrid library CCNG1.

In assay [11] the target is T38, P7mS.
T38 chain: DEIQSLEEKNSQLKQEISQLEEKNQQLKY
Briefly: two-hybrid library CCNG1.

Assay [12] deals with T39, P8mS.
T39 chain: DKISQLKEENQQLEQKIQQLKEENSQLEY
Briefly: two-hybrid library CCNG1.

The next assay addresses T40, P9mS.
T40 chain: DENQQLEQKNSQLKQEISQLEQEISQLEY
Nature of the assay: two-hybrid library CCNG1.

Another assay deals with T41, 4H2134-bH.
T41 chain: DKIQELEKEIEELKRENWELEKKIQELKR
Briefly: two-hybrid library CCNG1.

The target in the next assay is T42, 4H2143-bH.
T42 chain: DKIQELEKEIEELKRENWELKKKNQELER
Nature of the assay: two-hybrid library CCNG1.

The next assay concerns the target T43, 4H2223-bH.
T43 chain: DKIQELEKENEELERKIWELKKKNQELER
Briefly: two-hybrid library CCNG1.

The target of a further assay is T44, 4H2438-bH.
T44 chain: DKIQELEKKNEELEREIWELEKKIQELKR
Briefly: two-hybrid library CCNG1.

The next assay has as its target T45, 4H2473-bH.
T45 chain: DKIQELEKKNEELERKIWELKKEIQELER
Briefly: two-hybrid library CCNG1.

A further assay addresses T46, 4H2503-bH.
T46 chain: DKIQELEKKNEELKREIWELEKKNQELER
Briefly: two-hybrid library CCNG1.

In a further assay the target is T47, 4H2588-bH.
T47 chain: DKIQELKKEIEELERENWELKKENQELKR
Nature of the assay: two-hybrid library CCNG1.

For the next assay, the target named is T48, 4H2692-bH.
T48 chain: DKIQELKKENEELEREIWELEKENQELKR
Briefly: two-hybrid library CCNG1.

The next assay addresses T49, 4H2717-bH.
T49 chain: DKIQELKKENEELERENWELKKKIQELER
Briefly: two-hybrid library CCNG1.

For another assay, the target named is T50, 4H2839-bH.
T50 chain: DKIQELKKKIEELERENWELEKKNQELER
Briefly: two-hybrid library CCNG1.

The target in the next assay is T51, 4H2915-bH.
T51 chain: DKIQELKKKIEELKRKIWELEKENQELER
Briefly: two-hybrid library CCNG1.

In a further assay the target is T52, 4H3057-bH.
T52 chain: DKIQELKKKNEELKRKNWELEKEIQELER
Nature of the assay: two-hybrid library CCNG1.

In another assay the target is T53, 4H319-bH.
T53 chain: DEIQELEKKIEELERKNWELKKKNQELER
Briefly: two-hybrid library CCNG1.

The target of another assay is T54, 4H3277-bH.
T54 chain: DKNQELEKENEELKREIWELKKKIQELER
Nature of the assay: two-hybrid library CCNG1.

A further assay concerns the target T55, 4H348-bH.
T55 chain: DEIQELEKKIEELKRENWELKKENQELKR
Nature of the assay: two-hybrid library CCNG1.

Another assay has as its target T56, 4H3858-bN.
T56 chain: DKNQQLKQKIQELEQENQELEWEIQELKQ
Briefly: two-hybrid library CCNG1.

For another assay, the target named is T57, 4H40-bH.
T57 chain: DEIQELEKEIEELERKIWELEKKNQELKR
Briefly: two-hybrid library CCNG1.

The target in the next assay is T58, 4H477-bH.
T58 chain: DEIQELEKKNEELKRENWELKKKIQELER
Nature of the assay: two-hybrid library CCNG1.

A further assay concerns the target T59, 4H492-bH.
T59 chain: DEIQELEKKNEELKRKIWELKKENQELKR
Nature of the assay: two-hybrid library CCNG1.

For another assay, the target named is T60, 4H741-bH.
T60 chain: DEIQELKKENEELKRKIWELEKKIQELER
Briefly: two-hybrid library CCNG1.

A further assay has as its target T61, P11mS.
T61 chain: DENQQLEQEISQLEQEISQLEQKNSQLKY
Briefly: two-hybrid library CCNG1.

In the case of DKIKQLKQEIQRLEQENQRLEWENQKLEQ [O11-bP], the interaction score is -0.79 with O11-bP; 0.837 in the assay with O12-bP; -1.07 with O13-bP; -0.129 in the assay with O14-bP; -0.41 with O15-bP; -1.05 with O16-bP. Further, the interaction score in the assay with O2-bP is -1.44; with O3-bP, 0.514; with O4-bP, 0.69; with O5-bP, -0.395; in the assay with O6-bP, -0.577; in the assay with O7-bP, -1.03. The values for the interaction score in the assay with O8-bP and with O9-bP were -0.376 and -0.645, respectively.
For the molecule KNAQLKEKIAALKEKIQQLKEENQALEYG [P12], the interaction score with P12 was -2.73; with P3 it was 0.183; with P3mS [1], -0.884; with P4, -2.97; in the assay with P4mS [2], -2.91; in the assay with P5SC1 it was -2.96. For the same molecule, the interaction score with P5SC2 is -2.9; with P5, -2.87; in the assay with P5mS [3], -2.78; with P6SC1, -2.44; in the assay with P6SC2, -2.47; in the assay with P6, -2.42. Moreover, the interaction score was -2.73 with P6mS [4]; -2.41 with P7; -2.85 with P7mS [5]; -2.9 with P8; -2.85 with P8mS [6]; -1.37 in the assay with P9.
For the molecule DKNSQLKEKISQLKEKIQQLKEENQQLEY [P12mS], the interaction score in the assay with P12mS was -1.27; with P3mS [7] it was 0.362; with P4mS [8], -0.954; with P5mS [9], -1.57; with P6mS [10] it was -0.944; with P7mS [11], -0.947. Also, the interaction score with P8mS [12] was -0.844; in the assay with P9mS, -0.472.
On to DKIQELEKEIEELKRENWELEKKIQELKR [4H2134-bH], for which the interaction score with 4H2134-bH was 0.746; in the assay with 4H2143-bH, 0.0686; with 4H2223-bH, -0.653; with 4H2438-bH, 0.0398; in the assay with 4H2473-bH it was 0.459; with 4H2503-bH it was 1.45. In addition, the interaction score with 4H2588-bH is 1.01; with 4H2692-bH, 0.18; with 4H2717-bH, 1.07; with 4H2839-bH, 0.785; in the assay with 4H2915-bH, 1.56; with 4H3057-bH, 1.45. Moreover, the interaction score with 4H319-bH was 0.925; with 4H3277-bH, -0.74; in the assay with 4H348-bH, -0.551; with 4H3858-bN, 0.573; with 4H40-bH it was -0.995; in the assay with 4H477-bH, 1.08. Also, the figures for the interaction score with 4H492-bH and in the assay with 4H741-bH were 0.362 and 0.37, respectively.
In the case of DENQQLEQEISQLEQEISQLEQKNSQLKY [P11mS], the interaction score in the assay with P11mS was -0.707; with P12mS, 1.52; with P3mS [7] it was -0.646; in the assay with P4mS [8], 0.774; with P5mS [9], 0.261; in the assay with P6mS [10], -0.739. Besides, the values for the interaction score with P7mS [11], with P8mS [12] and in the assay with P9mS were -0.84, -0.0076 and -0.542, respectively.
